According to patent US20250263468A1 (CELLTRION, published 2025):

Key:
[1] = molecular target: T1, SARS-CoV-2 virus surface protein (RBD), wild type (SARS-CoV-2, UniProt P0DTC2 319-536); assay: BLI (Octet), full IgG against SARS-CoV-2 RBD
Method: The binding affinity (equilibrium dissociation constant, KD) of each fully human antibody to SARS-CoV-2 RBD was evaluated by biolayer interference (BLI) assay using Octet.

[2] = molecular target: T1, SARS-CoV-2 virus surface protein (RBD), …; assay: BLI (Octet), full IgG against RBD WT
[3] = molecular target: SARS-CoV-2 spike D614 (pseudovirus) (SARS-CoV-2, UniProt P0DTC2 14-1273); assay: cell-based or functional assay

Row | Binder | Kd [1] [nM] | other results
1 | antibody No. 59 (fully human antibody, full IgG) (antibody, V domains shown) VH: QVQLQESGPGLVKPSETLSLTCTVSGDSISGSSYYWGWIRQPPGKGLEWIGNIFYSGSTYYNPSLKSRVTISVDTPKNQFSLKLSSVTAADTAMYYCARGSRGYYDILTGYSTGGFDYWGQGTLVTVSS VL: ELQMTQSPATLSVSPGEGATLSCRASQSVSSNLAWYQHKPGQAPRLLIYDASTRATGIPARFSGSGSGTEFTLTISSLQSEDFAVYYCQQYNNWPLTFGGGTKLEIK | 0.0496 | 
2 | antibody No. 81 (fully human antibody, full IgG) (antibody, V domains shown) VH: QVQLVQSGGGVVQPGRSLRLSCAASGFTFSSFAMHWVRQAPGKGLEWVAVISFDGSNKYYADSVKGQFTISRDNSKNTLYLQMNSLRAEDTAVYYCARGDYYGSGSYYNPSPFFDYWGQGTLVTVSS VL: not shown | 0.0428 | 
3 | antibody No. 48 (fully human antibody, full IgG) (antibody, V domains shown) VH: EVQLVQSGGGLIQPGGSLRLSCAASGFTVSSNYMSWVRQPPGKGLEWVSVIYPGGSTFFADSVQGRFTISRDNSKNTLYLQMNSLRAEDTAVYYCARSYDFLTDYTDAFDIWGQGTMVTVSS VL: ELELTQPPSVSGAPGQRVTISCTGSSSNIGAGYDVHWYQQLPGTAPKLLIYGNSNRPSGVPDRFSGSKSGTSASLAITGLQAEDEADYYCQSYDSSLSGLWVFGGGTKLTVQ | 0.184 | 
4 | antibody No. 53 (fully human antibody, full IgG) (antibody, V domains shown) VH: EVQLVQSGGGLIQPGGSLRLSCAASGFTVSSNYMSWVRQPPGKGLEWVSVIYPGGSTFFADSVQGRFTISRDNSKNTLYLQMNSLRAEDTAVYYCARSYDFLTDYTDAFDIWGQGTMVTVSS VL: not shown | 3.39 | 
5 | antibody No. 54 (fully human antibody, full IgG) (antibody, V domains shown) VH: EVQLLESGGGLVQPGRSLRLSCAASGFNFDDYAMHWVRQAPGKGLEWVSGISWNSGTIGYADSVKGRFIISRDNAKNSLYLQMRSLKPEDTALYYCAKEELGPYSNRWYSSSDGMDVWGQGTTVTVSS VL: ELVLTQPPSVSGAPGQRVTISCTGSSSNIGAGYDVHWYQQLPGTAPKLLIYGNSNRPSGVPDRFSGSKSGTSASLAITGLQAEDEADYYCQSYDSSLSGVVFGGGTKLTVL | 0.0313 | Kd [2]: 0.133 nM; koff [2]: 0.000108 s⁻¹; kon [2]: 815000 M⁻¹ s⁻¹
6 | antibody No. 45 (fully human antibody, full IgG) (antibody, V domains shown) VH: EVQLVQSGAEVKKPGSSVKVSCKASGGTFSSYDISWVRQAPGQGLEWMGGIIPILGIPNYAQKFQGRVTITADESTSTAYMELSSLRSEDTAVYYCARSRGYSGYGANWYFDLWGRGTLVTVSS VL: ELVVTQPPSVSGAPGQRVTISCTGSSSNIGAGYDVHWYQQLPGTAPKLLIYGNSNRPSGVPDRFSGSKSGTSASLAITGLQAEDEAEYYCQSYDSSLSGPVFGGGTKLTVL | 0.0708 | 
7 | antibody No. 34 (fully human antibody, full IgG) (antibody, V domains shown) VH: QVQLVQSGAEVKKPGSSVKVSCKTSGGTFSNYPLTWVRQAPGQGLEWLGGIIPIIGATNYAQKFQGRVTITADESTSTAFMELSSLRSEDTAVYYCARGRGYSGYGAAYYFDYWGQGTLVTVSS VL: ELELTQPPSVSGAPGQRVTISCTGSSSNIGAGYDVHWYQQLPGTAPKLLIYGNSNRPSGVPDRFSGSKSGTSASLAITGLQAEDEADYYCQSYDSSLSGWVFGGGTKVTVL | 0.185 | 
8 | antibody No. 32 (fully human antibody, full IgG) (antibody, V domains shown) VH: EVQLVQSGGGLIQPGGSLRLSCAASEFIVSSNYMTWVRQAPGKGLEWVSIIYPGGSTYYADSVKGRFTISRDNSKNTLYLRMNSLRAEDTAVYYCARDLPLTGTTLDYWGQGTLVTVSS VL: not shown | 0.147 | IC50, pseudovirus neutralization [3]: 4.34 ng/mL; Kd [2]: 0.305 nM; koff [2]: 0.000193 s⁻¹; kon [2]: 633000 M⁻¹ s⁻¹
9 | antibody No. 61 (fully human antibody, full IgG) (antibody, V domains shown) VH: EVQLLESGGALVQPGRSLRLSCAASGFTFDDYAMHWVRQGPGKGLEWVSGTTWNSGTIGYADSVKGRFIISRDNAENSLYLQMNSLRPEDTALYYCAKDIGSGDRPDAFHLWGQGTMVTVSS VL: ELVLTQPPSVSVAPGKTARITCGGNNIGSKSVHWYQQKPGQAPVLVVYDDSDRPSGIPERFSGSNSGNTATLTISRVEAGDEADYYCQVWDSSSDRVVFGGGTKVTVL | 0.0226 | 
10 | antibody No. 33 (fully human antibody, full IgG) (antibody, V domains shown) VH: EVQLVESGGGVVQPGRSLRLSCAASGLTFSDYGMHWVRQAPGKGLEWVAAISYDGSNKYYADSVKGRFTISRDNSKNTVYLQMNSLRAEDTAVYYCVRDSGLYGSGWSTYQYYAMDVWGQGTTVTVSS VL: ELVLTQSPSVSVAPGKTARITCGGNNIGSKSVHWYQQKPGQAPVLVVYDDSDRPSGIPERFSGSNSGNTATLTISRVEAGDEADYYCQVWDSSSDHVVFGGGTKVTVL | 0.0431 | 
11 | antibody No. 37 (fully human antibody, full IgG) (antibody, V domains shown) VH: EVQLVQSGAEVKKPGESLKISCRGSGYSFTSHWIAWVRQMPGKGLEWMGIIYPGDSDSRYSPSFQGQVTISADKSISTAYLQWSSLKASDTAIYYCARGPNLYNWFDSWGQGTLVTVSS VL: not shown | 0.057 | 
